Test results from patent US20200190197A1 (REMD BIOTHERAPEUTICS, published 2020).
Numbering of substitutions follows the chain as printed.

B1: AS01824 (humanized Fab) (Fab, V domains shown)
VH: QVQLVQSGSELKKPGASVKVSCKASGYTFTSYSINWVRQAPGKGLEWVAYFYVGNGYTDYNEKFKGRVTITADESTSTAYMELSSLRSEDTAVYYCARGGLPYYFDYWGQGTLVTVSS
VL: EIVMTQSPATLSVSPGERATLSCKTSQDVNTAVAWYLQKPGQSPQLLIYWASTRHTGVPSRFSGSGSGTDYTLTISSLQPEDFATYYCQQHYNTPLTFGGGTKLEIK
notes: Purified humanized Fab
B2: AS02013 (humanized Fab) (Fab, V domains shown)
VH: EVQLVQSGAEVKKPGESLKISCKGSGYSFTSYSINWVRQAPGKGLEWMGYFYVGNGYTDYNEKFKGRVTMTRNTSISTAYMELSSLRSEDTAVYYCARGGLPYYFDYWGQGTLVTVSS
VL: DIQLTQSPSSLSASVGDRVTITCKTSQDVNTAVAWYQQKPGQAPRLLIYWASTRHTGVPSRFSGSGSGTDFTLTISSLQPEDFATYYCQQHYNTPLTFGGGTKLEIK
notes: Purified humanized Fab
B3: AS01825 (humanized Fab) (Fab, V domains shown)
VH: B1 VH with V2M, S9A, L11V, P14T, A16S, A40M, V48M, A49G
VL: B2 VL with S10F, Q42K, R45K, F83V
notes: Purified humanized Fab
B4: AS01807 (humanized Fab) (Fab, V domains shown)
VH: B1 VH with V48M, A49G, A72R, E74T, T76A
VL: B2 VL with L4M, L11V, G41D, A43S, R45K, Y49K
notes: Purified humanized Fab
B5: AS02002 (humanized Fab) (Fab, V domains shown)
VH: B1 VH with V2M, S9A, L11V, P14T, A16S, P41R, K43Q, G44R, V48I, A49G
VL: B2 VL with L4M, G41D, A43S, R45K, Y49K, V58I, S60A, D70E, P80S, T85V
notes: Purified humanized Fab
B6: AS01789 (humanized Fab) (Fab, V domains shown)
VH: B2 VH with K43Q, G44A, M70I, N73D, I76A, G100D, Y103F, Q110D, T112I, S117A
VL: DIVMTQSPDSLAVSLGERATINCKTSQDVNTAVAWYQQKPGQPPKLLIYWASTRHTGVPDRFSGSGSGTDFTLKISRVEAEDVGVYYCQQHYNTPLTFGGGTKLEIK
notes: Purified humanized Fab
B7: AS01814 (humanized Fab) (Fab, V domains shown)
VH: B1 VH
VL: B2 VL with L4M, S10T, Q42K, R45K, I48L, V58I, S60A, D70E, P80S, T85V
notes: Purified humanized Fab
B8: AS01979 (humanized Fab) (Fab, V domains shown)
VH: B2 VH
VL: B2 VL with L4M, L11V, A43P, R45K, S60D, P80A, F83V, T85V
notes: Purified humanized Fab
B9: AS01790 (humanized Fab) (Fab, V domains shown)
VH: B2 VH with A40M
VL: B2 VL with L4M, S10T, Q42K, R45K, D70E
notes: Purified humanized Fab derived from PDL1#10 (pFASEBA vector, E. coli)
B10: AS01817 (humanized Fab) (Fab, V domains shown)
VH: B2 VH with M70I, N73D, I76A
VL: B2 VL with S10F, A43P, R45K
notes: Purified humanized Fab
B11: AS01995 (humanized Fab) (Fab, V domains shown)
VH: B2 VH
VL: B2 VL with L4M, L11V, Q42K, R45K, I48L, F83V
notes: Purified humanized Fab
B12: AS01978 (humanized Fab) (Fab, V domains shown)
VH: B2 VH with M70I, R72T, N73D, T74E, I76T
VL: B2 VL with G41D, A43S, R45K, Y49K
notes: Purified humanized Fab
B13: murine-human chimeric Fab (from mAb PDL1#10) (Fab, V domains shown)
VH: EVQLQQSGAELVRPGSSVKMSCKTSGYTFTSYSINWVKQRPGQGLEWIAYFYVGNGYTDYNEKFKGKATLTSDTSSSTAYMQLSSLTSEDSAIYFCARGGLPYYFDYWGQGTTLTVSS
VL: DIVMTQSHKFMSTSVGDRVSITCKTSQDVNTAVAWYQQKPGHSPKLLFYWASTRHTGVPDRFTGGGSGTDYTLTISSVQAEDLALYYCQQHYNTPLTFGAGTRLELKR
B14: AS01814 (humanized full-length IgG) (antibody, V domains shown)
VH: B1 VH
VL: DIQMTQSPSTLSASVGDRVTITCKTSQDVNTAVAWYQQKPGKAPKLLLYWASTRHTGIPARFSGSGSGTEFTLTISSLQSEDFAVYYCQQHYNTPLTFGGGTKLEIKR
notes: Full-length IgG expressed in HEK293 cells, protein A purified
B15: AS01790 (humanized full-length IgG) (antibody, V domains shown)
VH: B2 VH with A40M
VL: B14 VL with L48I, I58V, A60S, S80P, V85T
notes: as for B14
B16: AS02013 (humanized full-length IgG) (antibody, V domains shown)
VH: B2 VH
VL: B14 VL with M4L, T10S, K42Q, K45R, L48I, I58V, A60S, E70D, S80P, V85T
notes: as for B14
B17: murine-human chimeric antibody derived from murine PDL1#10 (Chimeric IgG) (antibody, V domains shown)
VH: B13 VH
VL: B13 VL
notes: also called mouse-human chimeric antibody

target: T1, His-tagged PD-L1 protein (human, UniProt Q9NZQ7 19-238); experiment: SPR, Biacore T200, multi-cycle; Fab captured on chip, His-tagged PD-L1 as analyte
T1 construct: also called His-tagged antigen PD-L1 protein; human PD-L1; not shown: His tag
Description: A combinatorial humanization phage display library was constructed using the heavy chain and light chain variable domain sequences of mAb PDL1#10. Briefly, frameworks of human antibodies with high sequence identities to PDL1#10 were selected and assembled using overlapping PCR. This humanized Fab phage display library was panned against PD-L1 Fc-fusion protein. Individual output phage clones were amplified in 96-deep-well plates and the amplified phage were assayed by ELISA against PD-L1 Fc-fusion protein. […] DNAs encoding the Fab fragments of the output phage were amplified and inserted in pFASEBA vector (Genscript) for the screening of the best humanized antibody clones. Individual Fab clones were expressed in 96-deep-well plates and the crude protein secreted by E. coli to the medium was assayed by ELISA against BSA and the antigen PD-L1 protein for the assessment of expression and binding activity, respectively. Thousands of humanized clones were screened and a number of clones with slower off-rate were identified, amongst which 14 clones with the highest binding affinities were subjected to multi-cycle affinity measurement. The binding affinity of the 14 purified Fabs to His-tagged PD-L1 protein were determined using a Surface Plasmon Resonance (SPR) biosensor, Biacore T200 (GE Healthcare) for multi-cycle affinity measurements. Fabs were immobilized on the sensor chip through capture method. His-tagged antigen PD-L1 protein was used as the analyte. The data of dissociation (kd) and association (ka) rate constants were processed using Biacore T200 evaluation software. The equilibrium dissociation constants (KD) were calculated from the ratio of kd over ka.

T1 sequence (Q9NZQ7 19-238 limits assumed): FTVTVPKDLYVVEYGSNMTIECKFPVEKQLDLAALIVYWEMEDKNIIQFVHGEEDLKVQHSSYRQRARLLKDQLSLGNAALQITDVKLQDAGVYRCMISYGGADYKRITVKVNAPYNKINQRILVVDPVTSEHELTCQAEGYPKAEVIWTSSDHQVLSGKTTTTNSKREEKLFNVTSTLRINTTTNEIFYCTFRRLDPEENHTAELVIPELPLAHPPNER

Binder	Kd [nM]	koff [s⁻¹]	kon [M⁻¹ s⁻¹]
B1	0.87	0.00054	620000
B2	0.38	0.0002	500000
B3	1.1	0.00039	360000
B4	1.4	0.00035	260000
B5	1.5	0.00042	310000
B6	1.1	0.00036	330000
B7	0.16	0.00011	680000
B8	0.4	0.00019	470000
B9	0.35	0.00017	500000
B10	0.93	0.00032	340000
B11	0.37	0.00017	450000
B12	1.6	0.00045	290000
B13	0.29	0.00021	730000

target: T1, His-tagged PD-L1 protein; experiment: SPR, Biacore T200, full-length IgG, 1:1 interaction model
Source text: Binding data for each antibody was processed and fitted to 1:1 interaction model using Biacore T200 evaluation software. All experimental data could be well fitted to the model.

Binder	Kd [nM]	koff [s⁻¹]	kon [M⁻¹ s⁻¹]
B14	0.461	0.000173	376000
B15	0.769	0.000253	329000
B16	0.751	0.000276	367000
B17	1	0.000338	336000
